Experiment [1] addresses soluble CD4 (UniProt P01730). Nature of the experiment: SPR, gp120 over immobilized CD4.
Experiment [2] addresses soluble CD4 (UniProt P01730). The experiment can be described thus: SPR. (In general: In SPR one partner is held on a chip, and binding of the other changes the refractive index at the surface.)
Experiment [3] deals with HIV 89.6 gp140 envelope protein (cleaved gp140 preparation, oligomers) (HIV 89.6 (Clade B) primary isolate). The experiment can be described thus: SPR, D1 peptide over directly immobilized 89.6 gp140, no CD4.
For experiment [4] the target is unchanged. The experiment can be described thus: SPR, D1 peptide over 89.6 gp140 captured on immobilized CD4 (CD4-gp140 complex).
For experiment [5] the target is unchanged. The experiment can be described thus: SPR, sCD4-ligated gp140.
For experiment [6], the target named is recombinant HIV ADA gp41 protein (HIV ADA). Nature of the experiment: SPR, 89.6 gp120 (100 µg/ml) over immobilized ADA gp41.
The target is the same in experiment [7]. The experiment can be described thus: SPR, 89.6 gp120 pre-incubated with 0.3 mg/ml CD4, over immobilized ADA gp41.
For experiment [8], the target named is HIV 89.6 gp120 envelope protein (soluble) (HIV 89.6 (Clade B) primary isolate). The experiment can be described thus: SPR capture assay, mAb pre-incubated with 89.6 gp120, captured on A32; competitor DP178 50 µg/ml.
The target is the same in experiment [9]. Nature of the experiment: SPR SA-chip assay, 89.6 gp120 alone over biotinylated scrDP178.
Experiment [10] has the same target. The experiment can be described thus: SPR capture assay, gp120 over immobilized A32.
Experiment [11] addresses scrambled sequence DP178 peptide. Nature of the experiment: SPR SA-chip assay, A32 over biotinylated scrDP178.

Where “and” joins values, the source holds several entries; their conditions need not be identical. Identical values can stand only once.

As to HIV DH12 gp120 (soluble, monomeric), in the experiment with soluble CD4 [1], the dissociation constant (Kd) (as a rule, the equilibrium constant for the complex coming apart) worked out at 96 nM and the koff (usually a measure of how fast the partners let go of each other) came to 0.00047 s⁻¹. For the same substance, the t1/2 of binding with soluble CD4 [2] came to 25 min.
On to “CCR5-D1 peptide (CCR5 N-terminal extracellular domain peptide)”, for which, in [3], the Kd came out at 1000 nM and the dissociation rate constant (koff) came out at 0.01 s⁻¹. In experiment [4], the equilibrium dissociation constant (Kd) was determined as 280 nM; the koff was 0.00256 s⁻¹; the on-rate (kon) (as a rule, the rate constant with which the complex forms) worked out at 9000 M⁻¹ s⁻¹. Also, the equilibrium dissociation constant (Kd) in [5] worked out at 280000 nM.
In the experiment with soluble CD4 [1], “HIV 89.6 gp120 envelope protein (soluble)” displayed a dissociation constant Kd of 23 nM and a dissociation rate constant (koff) of 0.00011 s⁻¹. Moreover, the RU bound in experiment [6] came to 300 RU. For the same substance, the RU bound in experiment [7] was 850 RU. In the experiment with soluble CD4 [2], this substance gave a t1/2 of binding of 105 min.
With “mAb 48d (human, coreceptor binding site of gp120) (antibody)”, in experiment [8], the % blocking of DP178 binding came out at 80%.
As to HIV JRFL gp120 (soluble, monomeric), in the experiment with soluble CD4 [1], the Kd was found to be 146 nM and the koff came to 0.00088 s⁻¹. The substance also gave a t1/2 of binding with soluble CD4 [2] of 14 min.
On to scrambled sequence DP178 peptide, for which the RU (constitutive binding) in experiment [9] was 50 RU.
In experiment [8], “mab 17b (human, CCR5/coreceptor binding site of gp120) (antibody)” had a % blocking of DP178 binding of 80%.
With “mab A32 (human anti-gp120, conformational determinant) (antibody)”, in experiment [10], the RU bound was 2000 RU. In addition, the RU (background signal) in experiment [11] was 10 RU and 20 RU.
Regarding “mab 19b (human anti-gp120 V3 loop) (antibody)”, the % blocking of DP178 binding in experiment [8] stood at 68%.

The values are drawn from patent US20080213296A1.
